Tests used:
[1] = molecular target: T1, nectin-2 (UniProt Q92692 32-538, limits assumed); test: western blot of lysates of MDA-MB-231 cells transfected with null vector (wt cells express nectin-1, -2, -3); similar results by FACS
T1 construct: whole, on cells
T1 sequence (looked up): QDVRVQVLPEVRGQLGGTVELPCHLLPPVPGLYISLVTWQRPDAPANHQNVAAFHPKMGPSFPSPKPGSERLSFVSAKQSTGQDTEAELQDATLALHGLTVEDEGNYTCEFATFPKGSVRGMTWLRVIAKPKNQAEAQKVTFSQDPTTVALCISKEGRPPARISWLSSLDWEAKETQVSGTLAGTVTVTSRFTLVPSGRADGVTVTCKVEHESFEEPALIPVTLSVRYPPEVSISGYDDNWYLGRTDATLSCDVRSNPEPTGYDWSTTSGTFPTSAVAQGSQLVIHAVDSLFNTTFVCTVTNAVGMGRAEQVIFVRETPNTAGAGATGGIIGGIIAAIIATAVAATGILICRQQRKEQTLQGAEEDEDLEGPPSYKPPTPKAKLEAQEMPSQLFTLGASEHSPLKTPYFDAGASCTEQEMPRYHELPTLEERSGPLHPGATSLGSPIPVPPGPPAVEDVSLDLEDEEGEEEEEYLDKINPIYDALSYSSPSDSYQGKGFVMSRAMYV

[2] = molecular target: T2, nectin-1 (UniProt Q15223 31-517, limits assumed); test: as above
T2 construct: whole, on cells
T2 sequence (looked up): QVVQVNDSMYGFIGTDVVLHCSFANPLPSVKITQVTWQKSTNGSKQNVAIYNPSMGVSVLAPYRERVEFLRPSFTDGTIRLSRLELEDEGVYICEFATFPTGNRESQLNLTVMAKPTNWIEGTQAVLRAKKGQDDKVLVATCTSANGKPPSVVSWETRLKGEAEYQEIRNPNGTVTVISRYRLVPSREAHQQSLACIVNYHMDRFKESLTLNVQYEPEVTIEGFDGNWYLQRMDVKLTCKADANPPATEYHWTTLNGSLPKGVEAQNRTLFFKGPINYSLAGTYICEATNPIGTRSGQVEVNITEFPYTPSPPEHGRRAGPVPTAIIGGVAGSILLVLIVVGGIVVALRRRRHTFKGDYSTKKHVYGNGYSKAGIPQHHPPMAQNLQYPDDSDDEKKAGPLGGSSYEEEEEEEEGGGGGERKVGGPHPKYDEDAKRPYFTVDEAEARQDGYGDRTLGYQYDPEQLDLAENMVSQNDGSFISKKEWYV

binding result [1]: no binding (tested: 1 µg/ml) | binding result [2]: no binding (tested: 1 µg/ml)
B1: 14A5.2 monoclonal antibody (antibody, V domains shown)
VH: EVLLQQSGPELVKPGASVKIPCKASGYTFTDYTMDWVKQSHGKSLEWIGDINPNNDVTMYNEKFKGRATLTVDKSSSTAYMEVRSLTSEDTAVYYCVRGRGFAYWGQGTLVTVSA
VL: DIVLTQSPASLIVSLGQRATISCRASQSVSTSSNSYMHWYQQKPGQPPKLLIRFASNLESGVPARFSGSGSGTYFTLNIHPVEEEDSATYYCQHSWEIPYTFGGGTKLEIK
notes: Parental non-chimeric monoclonal antibody; also called 14A5.2 mab; 14A5.2-HRP
